For experiment [1], the target named is T1, His-tagged human PTK7 protein (human, UniProt Q13308 31-704).
T1 construct: Bought protein; also called hPTK7-His; not shown: His tag
T1 sequence: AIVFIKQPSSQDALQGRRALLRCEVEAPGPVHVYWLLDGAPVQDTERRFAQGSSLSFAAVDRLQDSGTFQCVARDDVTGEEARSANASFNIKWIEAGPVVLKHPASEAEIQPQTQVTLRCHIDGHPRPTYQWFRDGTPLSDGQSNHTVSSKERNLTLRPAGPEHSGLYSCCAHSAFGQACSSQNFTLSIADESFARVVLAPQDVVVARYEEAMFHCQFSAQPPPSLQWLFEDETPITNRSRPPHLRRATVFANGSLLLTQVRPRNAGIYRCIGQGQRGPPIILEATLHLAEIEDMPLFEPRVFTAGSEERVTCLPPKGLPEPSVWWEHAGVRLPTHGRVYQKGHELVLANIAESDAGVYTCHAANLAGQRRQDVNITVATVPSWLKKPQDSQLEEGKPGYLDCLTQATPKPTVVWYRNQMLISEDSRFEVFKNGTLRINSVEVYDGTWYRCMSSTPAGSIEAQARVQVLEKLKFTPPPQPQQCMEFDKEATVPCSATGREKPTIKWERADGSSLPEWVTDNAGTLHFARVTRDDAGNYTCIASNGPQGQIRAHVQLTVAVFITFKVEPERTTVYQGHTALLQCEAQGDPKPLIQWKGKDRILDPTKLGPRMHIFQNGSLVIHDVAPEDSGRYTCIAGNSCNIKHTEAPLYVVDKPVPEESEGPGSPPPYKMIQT
The experiment in a line: BLI Octet binning on hPTK7-His; competitor 2A5. As for the experimental part:
(§1) Relative positions of target protein epitope between a pair of purified anti-PTK7 antibodies were analyzed by Biolayer Interferometry (BLI) using ForteBio Octet system at 30° C. A total of […] purified antibodies were used: 1A7, 1A11, 1F2, 2A5, 2D11, 2F5, 3C4 and 3E6.
(§2) 1×HBS-EP+ buffer (10 mM 4-(2-hydroxyethyl)-1-piperazineethanesulfonic acid (HEPES), 150 mM NaCl, 3 mM ethylenediaminetetraacetic acid (EDTA) and 0.05% P20, pH7.4) diluted from HBS-EP+ buffer (10×) was used as the running buffer throughout the experiment. His-tagged human PTK7 protein was captured at a flow rate of 10 μL/min, and 200 nM of antibody (Analyte 1) was injected at a flow rate of 30 μL/min to bind the ligand. Another antibody (Analyte 2) was injected under the same conditions to determine whether the binding of different antibodies interfered with each other. The binding time was 300 s for each antibody.
(§3) The binding value of each antibody was obtained using Data Analysis HT 12.0. To quantify the interference of one antibody binding to another, a binding ratio was calculated to compare each pair of antibodies. The binding ratio is defined as the binding value of the second antibody (Analyte 2), divided by the binding value of the first antibody (Analyte 1). […] In general, antibody pairs that interfere with each other have the same or overlapping epitopes.
A general note: Biolayer interferometry detects binding as a change in optical thickness at a sensor tip.

Experiment [2] deals with T2, human PTK7 on human cancer cell lines (human, UniProt Q13308 31-1070).
T2 construct: Endogenous PTK7 of human tumour cell lines; also called PTK7 on A-431, NCI-H520, NCI-N87, SK-OV-3, BT-20, HCC1954, NCI-H226, NCI-H358, HCT116, PC-3, NCI-H292, NCI-H1975 cells
T2 sequence: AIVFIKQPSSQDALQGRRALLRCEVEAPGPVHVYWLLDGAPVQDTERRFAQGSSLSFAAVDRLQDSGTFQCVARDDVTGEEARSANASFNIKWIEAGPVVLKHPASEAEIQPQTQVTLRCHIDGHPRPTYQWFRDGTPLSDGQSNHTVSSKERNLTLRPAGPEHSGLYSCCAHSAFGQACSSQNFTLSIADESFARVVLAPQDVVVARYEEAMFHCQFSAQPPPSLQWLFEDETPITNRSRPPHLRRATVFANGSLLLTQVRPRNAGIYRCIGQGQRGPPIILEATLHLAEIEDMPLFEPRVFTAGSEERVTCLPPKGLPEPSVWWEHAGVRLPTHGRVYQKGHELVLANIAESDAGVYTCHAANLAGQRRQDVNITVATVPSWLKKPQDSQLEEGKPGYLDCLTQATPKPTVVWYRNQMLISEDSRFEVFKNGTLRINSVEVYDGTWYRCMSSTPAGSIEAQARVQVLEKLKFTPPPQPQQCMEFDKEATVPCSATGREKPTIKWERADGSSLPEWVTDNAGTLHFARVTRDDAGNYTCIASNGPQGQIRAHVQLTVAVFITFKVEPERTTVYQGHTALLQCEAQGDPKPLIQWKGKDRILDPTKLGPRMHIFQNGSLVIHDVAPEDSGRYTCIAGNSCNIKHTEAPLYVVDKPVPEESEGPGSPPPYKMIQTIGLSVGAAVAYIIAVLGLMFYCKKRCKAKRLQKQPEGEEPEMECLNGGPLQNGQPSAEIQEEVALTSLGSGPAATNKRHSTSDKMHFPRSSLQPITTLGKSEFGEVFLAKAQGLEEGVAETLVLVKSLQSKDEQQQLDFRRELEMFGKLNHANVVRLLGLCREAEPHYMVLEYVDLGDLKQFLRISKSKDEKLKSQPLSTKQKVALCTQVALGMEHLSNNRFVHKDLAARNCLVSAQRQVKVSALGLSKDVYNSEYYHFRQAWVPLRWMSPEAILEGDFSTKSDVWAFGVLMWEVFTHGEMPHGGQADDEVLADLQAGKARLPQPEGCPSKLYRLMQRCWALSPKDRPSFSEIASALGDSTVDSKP
The experiment in a line: flow cytometry, BT-20 cells, Ab 5 ug/mL. As for the experimental part: (§4) The binding activity of anti-PTK7 antibodies to cancer cell lines was verified by flow cytometry. […] Purified anti-PTK7 antibody with a concentration of 5 μg/mL was added to each well and was incubated at 4° C. for 30 minutes. […] The cells were collected, and the mean fluorescence intensity (MFI) was determined. Human IgG1 was used as ISO control.
On the technique in general: A flow cytometer gives signals particle by particle.

The target in experiment [3] is T1, His-tagged human PTK7 protein. The experiment in a line: BLI Octet binning on hPTK7-His; competitor 3C4. As for the experimental part: as §1, §2, §3
For experiment [4], the target named is T2, human PTK7 on human cancer cell lines. The experiment in a line: flow cytometry, HCT116 cells, Ab 5 ug/mL. As for the experimental part:
as §4

B1: 1A11 (antibody, V domains shown)
VH: QVQLVQSGPGLVKPSETLSLTCTVSGGSINSYYWNWIRQPPGKGLEWIGYIYYSGSTNYNPSLKSRVTISVDTSKNQFSLKLSSVTAADTAVYYCARDPHDYIRGHFDLWGRGTLFTVSS
VL: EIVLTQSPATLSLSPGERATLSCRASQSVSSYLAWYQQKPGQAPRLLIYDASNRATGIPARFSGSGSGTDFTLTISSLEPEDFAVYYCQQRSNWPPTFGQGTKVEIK
notes: also called anti-PTK7 antibody 1A11
B1: the binding ratio in experiment [1] stood at 0.75; in experiment [3] it was 0.67. Besides, the MFI in experiment [2] amounted to 136000; in experiment [4], 260000.

B2: 1F2 (antibody, V domains shown)
VH: QVQLVQSGGGLVQPGGSLRLSCAASGFTFSRYEMNWVRQAPGKGLEWVSYINSIGSAINYADSVKGRFTISRDNAKNSLYLQMRSLRAEDTAVYYCVREDNWNPGYWGQGTLVTVSS
VL: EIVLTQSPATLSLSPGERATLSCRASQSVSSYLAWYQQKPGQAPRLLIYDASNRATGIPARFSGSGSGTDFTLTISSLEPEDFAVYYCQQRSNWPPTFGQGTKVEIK
notes: also called anti-PTK7 antibody 1F2
In the case of B2, the binding ratio is 0.71 in experiment [1] and 0.48 in experiment [3]. Moreover, the MFI in experiment [2] turned out to be 50900; in experiment [4], 149000.

B3: 1A7 (antibody, human IgG1, V domains shown)
VH: QVQLVESGGGVVQPGRSLRLSCAASGFTFSNYGMHWVRQAPGKGLEWVAVIYYDGSNKFYADSVKGRFTISRDNSKNTLYLQMSSLRAEDTAVYYCARDVAPPGSRAEYFHHWGQGTLVTVSS
VL: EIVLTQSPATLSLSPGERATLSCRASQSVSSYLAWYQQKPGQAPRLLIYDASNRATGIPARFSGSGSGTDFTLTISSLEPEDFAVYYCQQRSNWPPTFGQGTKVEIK
notes: also called anti-PTK7 antibody 1A7
As to B3, the binding ratio in experiment [1] came out at 0.1; in experiment [3], 0.66. Further, the MFI in experiment [2] worked out at 86200; in experiment [4], 115000.

B4: 2A5 (antibody, V domains shown)
VH: QVQLVQSGGGVVQPGRSLRLSCAASGFTFSNYGMHWVRQAPGKGLEWVAVIWYDGRNKYYADSVKGRFTISRDNSKNTLYLQMNSLRAEDTAVYYCARDVAPAGSRAEYFQNWGQGTLVTVSS
VL: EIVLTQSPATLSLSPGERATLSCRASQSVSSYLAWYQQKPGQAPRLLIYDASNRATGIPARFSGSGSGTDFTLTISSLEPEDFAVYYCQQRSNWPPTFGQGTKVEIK
notes: also called anti-PTK7 antibody 2A5
In the case of B4, the binding ratio is 0.05 in experiment [1] and 0.62 in experiment [3]. For the same molecule, the MFI in experiment [2] worked out at 137000; in experiment [4], 234000.

B5: 2D11 (antibody, V domains shown)
VH: QVQLVESGGGVVQPGRSLRLSCAASGFTFSSYGMHWVRQAPGKGLEWVAVIFYDGSNKYYADSVKGRFTISRDNSKNTLYLQMNSLRAEDTSVYYCARDVAAPGSRAEYFQNWGQGTLVTVSS
VL: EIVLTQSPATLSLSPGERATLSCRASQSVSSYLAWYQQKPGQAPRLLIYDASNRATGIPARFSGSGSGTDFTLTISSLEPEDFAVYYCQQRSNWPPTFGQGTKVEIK
notes: also called anti-PTK7 antibody 2D11
In the case of B5, the figures for the binding ratio in experiment [1] and in experiment [3] were 0.15 and 0.81, respectively. In addition, the MFI amounted to 172000 in experiment [2] and 287000 in experiment [4].

B6: 2F5 (antibody, V domains shown)
VH: QVQLVESGGGVVQPGRSLRLSCVASGFTFSNYGMHWVRQAPGKGLEWVAIIYYDGSNKYYADSVKGRFTISRDNSKNTLYLQMNSLRAEDTAVYYCARDVAAAGSRAEYLHHWGQGTLVTVSS
VL: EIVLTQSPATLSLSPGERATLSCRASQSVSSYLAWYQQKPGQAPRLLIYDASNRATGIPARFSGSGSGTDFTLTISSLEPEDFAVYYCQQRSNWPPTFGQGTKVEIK
notes: also called anti-PTK7 antibody 2F5
As for B6, the binding ratio in experiment [1] was 0.12; in experiment [3], 0.71. The MFI amounted to 83800 in experiment [2] and 133000 in experiment [4].

B7: 3C4 (antibody, V domains shown)
VH: QVQLEQSRAEVKKPGESLRISCKGSGYSFTSYWISWVRQMPGKGLEWMGRIDPSDSYTNYNPSFQGHVTISADKSISTAYLQWSSLKASDTAMYYCARRDGSYFDFDYWGQGTLVTVSS
VL: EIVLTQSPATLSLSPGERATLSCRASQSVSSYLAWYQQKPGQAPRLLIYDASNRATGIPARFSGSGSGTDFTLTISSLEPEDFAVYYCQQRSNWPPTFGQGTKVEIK
notes: also called anti-PTK7 antibody 3C4
Turning to B7, the binding ratio is 0.93 in experiment [1] and 0.16 in experiment [3]. Moreover, the figures for the MFI in experiment [2] and in experiment [4] were 148000 and 230000, respectively.

B8: 3E6 (antibody, V domains shown)
VH: QVQLVESGAEVKKPGESLRISCRGSGYSFTSYWISWVRQMPGKGLEWMGRIDPSDSYTKYSPSFQGHVTISADKSISTAYLQWSSLKASDTAMYYCARRDGDYFDFDYWGQGTLVTVSS
VL: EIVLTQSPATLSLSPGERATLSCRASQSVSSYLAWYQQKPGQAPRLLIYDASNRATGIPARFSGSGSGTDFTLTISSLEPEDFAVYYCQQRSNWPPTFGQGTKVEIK
notes: also called anti-PTK7 antibody 3E6
As for B8, the figures for the binding ratio in experiment [1] and in experiment [3] were 0.81 and 0.11, respectively. The MFI in experiment [2] amounted to 152000; in experiment [4], 339000.

(Values after patent US20260250421A1 (BIOCYTOGEN PHARMACEUTICALS BEIJING, published 2026).)
